From US20230272097A1 (PETMEDIX, published 2023) come the findings set out here.

Positions count from the first letter of the chain named.

T1: canine OX40L, full length membrane form, expressed on the cell surface (HEK293 or MEF cells stably … (canine (dog, beagle)))
T1 construct: The same protein is used on HEK293 and on MEF cells; also called HEK-OX40L; OX40L expressing HEK293 cells
T1 chain: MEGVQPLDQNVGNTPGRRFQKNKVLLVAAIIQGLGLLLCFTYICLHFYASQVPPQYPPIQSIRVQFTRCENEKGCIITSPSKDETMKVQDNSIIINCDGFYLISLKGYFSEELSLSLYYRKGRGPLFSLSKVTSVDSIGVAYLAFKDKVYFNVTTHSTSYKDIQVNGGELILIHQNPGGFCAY

B1: PMX013 (antibody, V domains shown)
VH: ELTLQESGPGLVKPSQTLSLTCVVSGGSVTSSHYWNWIRQRPGRGLEWMGSWTGGTNYNPAFQGRISVTSDTAKNQFSLQLSSLTTEDTAVYYCARGGGYSGTWKDYYVMDYWGHGTSVIVSS
VL: SYVLTQLPSKNVTLNQPAHITCGGDNLGSKSVHWYQQKLGQAPVLIIYFDTSRPTGIPERFSGANSGNTATLTISGALAEDEADYYCQVWDSSAKASVFGGGTHLTVL
notes: Canine variable regions
B2: PMX016 (antibody, V domains shown)
VH: EVQLVESGGDLVKPGGSLRLSCVASGFTFSNYHMNWVRQAPGKGLQWVAYITSDGIVSSYADVVKGRFTISRDNAKNTLFLQMNSLRAEDTAVYYCASGLFLVVGGGTFWGQGTLVTVSS
VL: B1 VL with N15K, L27I, F49S, T51S
notes: Canine variable regions
B3: PMX017 (antibody, V domains shown)
V domain 1: EVQLVESGGDLVKPGGSLRLSCVASGFTFSSYHMSWVRQAPGKGLQWVAYIASGGTVTTYADAVRGRFTISRDNAKNMLYLQMNSLRAEDSAVYYCTRWKGGTFGYGMDYWGHGTSLFVSS
V domain 2: B1 VL with N15K, L27I, F49Y, T51N, S52N, T55A
notes: Canine variable regions
B4: PMX019 (antibody, V domains shown)
VH: EVQLVESGGDLVKPGGSLRLSCVASGFTFSSNYMSWIRQAPGKGLQWVSQISGDGIYTNYADAMKGRFTISRDNAKNTLYLQMNSLRDEDTALYYCATGIYPNAFGYWGQGTLVTVSS
VL: SYVLTQLSSKNVTLKQPAHITCGGDNIGSKSVHWYQQKLGQAPVLIIYYDSSRPTGIPERFSGANSGNTATLTISGALAEDEADYYCQVWDSSANVFGGGTHLTVL
notes: Canine variable regions; also called PMX19
B5: PMX020 (antibody, V domains shown)
VH: EVQLVESGGDLVKPGGSLRISCVASGFTFSSYHMNWVRQAPGKGLQWVAHISSGGTFTSYADAVKGRFTISRDNAKNTLYLQMISLRAEDTAVYYCASGLFLVVGGGNYWGRGTLVTVSS
VL: B4 VL with S8P, Y49S, N95S
notes: Canine variable regions
B6: PMX018 (antibody, V domains shown)
VH: B2 VH with S53N, V63A, F80Y, A88V
VL: B1 VL with N15K, L27I, Q37H, F49Y, T51S
notes: Canine variable regions
B7: PMX 015 (antibody, V domains shown)
V domain 1: EVQLVESGGDLVKPGGSLRISCVASGFTFSYYHMSWVRQAPGKGLQWVAYINSGGFSTNYADAVKGRCSISRDNGKNTLYLQMNSLRPEDTGVYYCASESRWGDSYSGMTYWGHGTSLFVSS
V domain 2: B1 VL with N15K, L27I, F49Y, T51N, N65K
notes: anti-canine OX40L candidate
B8: PMX 024 (antibody, V domains shown)
VH: B4 VH with Q3L, V5M, S35Y, I56S, Y57F, M64V, L93V, Y94F, T98S
VL: B4 VL with L7P, S8P, W90R
notes: anti-canine OX40L candidate
B9: PMX014 formulated in canine IgGB Def2 backbone (antibody)
heavy: EVQLVESGGDLVKPGGSLRLSCVASGFTFSNFHMSWVRQAPGKGLQWVAYINSGGFNINYEDAVRGRFTISRDNAKNTLYLQMNSLRAEDTAIYYCARDWDTHLDTNWFYYWGQGTLVTVSSASTTAPSVFPLAPSCGSTSGSTVALACLVSGYFPEPVTVSWNSGSLTSGVHTFPSVLQSSGLYSLSSMVTVPSSRWPSETFTCNVAHPASKTKVDKPVPKRENGRVPRPPDCPKCPAPESLGGPSVFIFPPKPKDTLLIARTPEVTCVVVDLGREDPEVQISWFVDGKQMQTAKTQPREEQFNGTYRVVSVLPIGHQDWLKGKQFTCKVNHIGLPSPIERTISKARGQAHQPSVYVLPPSREELSKNTVSLTCLIKDFFPPDIDVEWQSNGQQEPESKYRTTPPQLDEDGSYFLYSKLSVDKSRWQRGDTFICAVMHEALHNHYTQKSLSHSPGK
light: B1 VL with N15K, P17S, G23R, L27I, F49Y, T51S, S92I
notes: also called PMX014 Def2; not shown: light chain constant region (human kappa, or canine kappa or lambda)
B10: PMX014 formulated in canine IgGB Def7 backbone (antibody)
heavy: B9 heavy with S242A, L243A, G275D, R276P, H333N, I334K, G335A, P337G
light: B1 VL with N15K, P17S, G23R, L27I, F49Y, T51S, S92I
notes: also called PMX014 Def7; not shown: light chain constant region (human kappa, or canine kappa or lambda)
B11: PMX020 formulated in canine IgGB Def2 backbone (antibody)
heavy: EVQLVESGGDLVKPGGSLRISCVASGFTFSSYHMNWVRQAPGKGLQWVAHISSGGTFTSYADAVKGRFTISRDNAKNTLYLQMISLRAEDTAVYYCASGLFLVVGGGNYWGRGTLVTVSSASTTAPSVFPLAPSCGSTSGSTVALACLVSGYFPEPVTVSWNSGSLTSGVHTFPSVLQSSGLYSLSSMVTVPSSRWPSETFTCNVAHPASKTKVDKPVPKRENGRVPRPPDCPKCPAPESLGGPSVFIFPPKPKDTLLIARTPEVTCVVVDLGREDPEVQISWFVDGKQMQTAKTQPREEQFNGTYRVVSVLPIGHQDWLKGKQFTCKVNHIGLPSPIERTISKARGQAHQPSVYVLPPSREELSKNTVSLTCLIKDFFPPDIDVEWQSNGQQEPESKYRTTPPQLDEDGSYFLYSKLSVDKSRWQRGDTFICAVMHEALHNHYTQKSLSHSPGK
light: B4 VL with S8P, Y49S, N95S
notes: also called PMX020 Def2; not shown: light chain constant region (human kappa, or canine kappa or lambda)
B12: PMX020 formulated in canine IgGB Def7 backbone (antibody)
heavy: B11 heavy with S240A, L241A, G273D, R274P, H331N, I332K, G333A, P335G
light: B4 VL with S8P, Y49S, N95S
notes: also called PMX020 Def7; not shown: light chain constant region (human kappa, or canine kappa or lambda)

One test concerns the target T1, canine OX40L, full length membrane …. The test is described as follows: flow cytometry titration on MEF cells expressing OX40L; Kd (EC50) from GeoMean vs concentration, Prism four parameter fit. Here is the method: FIG. 11. Affinity determination for antibodies that bind OX40L on MEF cells expressing OX40L. Graphs are generated by plotting GeoMean arbitrary units (AU) against Log₁₀ [concentration]. Kd (EC₅₀) was calculated using Prism.
(§1) Specific binding to cells expressing OX40L is confirmed by purifying mAb from the CHO supernatant using protein A resin (MabSelect, Cytiva). In brief, MabSelect resin is washed in PBS and diluted to have a 10% slurry. An appropriate volume of the 10% slurry is added to the supernatant and incubated 5-10′ at RT before being loaded into a filter column. After 3 washes with PBS the antibodies are eluted using IgG elute buffer (Pierce) directly into neutralisation buffer (10 mM TRIS pH8.0), 8:1 IgG elute: neutralisation buffer ratio. Antibody solutions are quantified measuring absorbance at 280 nm, using a Nanodrop One (Thermo Fisher). Serial 1:3 dilutions of purified antibodies ranging from 6.6 μM to 66 pM are prepared in FACS buffer and are used to stain HEK293 or MEF cells (or any other commonly used cell lines) expressing canine OX40L.
One may read the Kd as the equilibrium constant for the complex coming apart. Low values mean higher affinity, high ones lower affinity. Turning to B1, the dissociation constant Kd came out at 22.7 nM.

For B2, the Kd amounted to 108 nM.

B3: the Kd worked out at 10.7 nM.

B4 registered a Kd of 38.3 nM.

B5 displayed a dissociation constant (Kd) of 0.71 nM.

For another test the target is unchanged. Description: flow cytometry titration on HEK cells expressing OX40L; Kd (EC50) from GeoMean vs concentration, Prism four parameter fit. The procedure:
FIG. 10. Affinity determination for antibodies that bind OX40L on HEK cells expressing OX40L. Graphs are generated by plotting GeoMean arbitrary units (AU) against Log₁₀ [concentration]. Kd (EC₅₀) was calculated using Prism.
as §1
On the technique in general: Flow cytometry measures light scatter and fluorescence of single cells or particles in a stream.
Turning to B1, binding was characterised by a dissociation constant (Kd) of 165 nM. This counts as sub-micromolar.

Consider B2, for which the Kd worked out at 37.4 nM.

For B3, the Kd was 30 nM.

Molecule B6 gave a Kd of 23.6 nM.

In turn, B4 returned a Kd of 4.49 nM.

B5: the Kd was determined as 2.8 nM. Compared with the last molecule, the Kd is about 1.6-fold lower.

For the next test the target is unchanged. Description: flow cytometry, single dose, OX40L expressing HEK293 cells against the parental line, fluorescently labelled secondary antibody. The procedure:
CHO cells supernatants containing candidate antibodies are diluted to 1, 5 or 10 μg/ml in FACS buffer (PBS containing 3% FBS) and screened for their ability to bind canine OX40L proteins expressed on cell surface. In brief, HEK293 or MEF cells (or any other commonly used cell lines) expressing canine OX40L at the cell surface are incubated with 100 μl of FACS buffer containing the candidate antibody for 30′ on ice. As a control the parental cell line (HEK293 or MEF cells not expressing OX40L) is also stained with the same antibody solution. After staining, cells are washed with 150 μl FACS buffer followed by centrifugation at 300 g for 3 min. Supernatant is removed, and the cell pellet is resuspended in FACS buffer containing a 1:1000 dilution of a fluorescently labelled secondary antibody recognising the human or canine Fc region of the test antibody for 30 min in the dark, followed by washing with 150 μl FACS buffer and centrifugation at 300 g for 3 mins. Cells are resuspended in FACS buffer and flow cytometry performed using either a […] cytometer, followed by data analysis using FlowJo (FIG. 8).
In the case of B7, the binding result was “binds”.

As to B8, the binding result was “binds”.

Another test shares this target. Description: flow cytometry titration on HEK cells expressing OX40L; Kd (EC50), Prism. The procedure: FIG. 12. Affinity determination for antibodies that bind OX40L formulated in canine IgGB Def2 and Def7 backbones. The experiment was performed using HEK cells expressing OX40L. Graphs are generated by plotting GeoMean arbitrary units (AU) values against Log₁₀ [concentration]. Kd (EC₅₀) was calculated using Prism.
as §1
B9 registered a dissociation constant Kd of 74.6 nM.

In the case of B10, the equilibrium dissociation constant (Kd) was 74.2 nM.

For B11, binding was characterised by a dissociation constant (Kd) of 45.4 nM. This Kd lies about 1.6-fold lower than the previous one.

B12: the Kd was 58.1 nM.
